This note sets out measurements from patent US20210292393A1 (published 2021).

Residue numbers refer to the chain shown, from its start.

As usually defined, the Kd is a measure of binding affinity in units of concentration. A lower Kd goes with a tighter complex.

Sequences and labels used below:
B1: antibody 543 (antibody, V domains shown)
VH: EVQLVESGGGLVQPGRSLRLSCAASGFTFHDYAMHWVRQAPGKGLEWVSGISWNSGSIGYADSVKGRFTISRDNAKNSLYLQMNSLRAEDTALYYCAKDTFGSSSWYRGDSYYYYGMDVWGQGTTVTVSS
VL: QSALTQPASVSGSPGQSITISCTGTSSDVGGYNYVSWYQQHPGKAPKLMIYEVSNRPSGVSNRFSGSKSGNTASLTISGLQAEDEADYYCSSYTSSSTQRYVVFGGGTKLTVL
B2: antibody 541 (antibody, V domains shown)
VH: QVQLVQSGAEVKKPGASVKVSCKASGYTFTSYYVHWVRQAPGQSLEWMGVISPSTGSTTYAQNFQGRVTMTRDTSTTTVYMELSSLRSEDTAVYYCARDDYYDSTRYFDLWGRGTLVTVSS
VL: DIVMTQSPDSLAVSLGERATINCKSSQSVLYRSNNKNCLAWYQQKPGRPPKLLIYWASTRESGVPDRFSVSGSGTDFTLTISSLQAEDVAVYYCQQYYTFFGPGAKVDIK
B3: antibody 546 (antibody, V domains shown)
VH: QVQLVESGGGVVQPGRSLRLSCAASGFTFSSYGMHWVRQAPGKGLEWVAVIWYDGSNKYYADSVKGRFTISRDNSKNTLYLQMNSLRAEDTAVYYCARNCGGDCVAGDGFDYWGQGTLVTVSS
VL: DIQMTQSPSSLSASVGDRVTITCRASQSISSYLNWYQQKPGKAPNLLIYAASSLQSGVPSRFSGSGSGTDFTLTISSLQPEDFATYYCQQSYSALTWTFGQGTKVEIK
B4: antibody 273 (antibody, V domains shown)
VH: QVQLVQSGAEVKKPGASVKVSCKVSGYTLTELSMHWVRQAPGKGLEWMGGFDPEDGETIYAQKFQGRVTMTEDTSTDTAYMELSSLRSEDTAVYYCATAPGYYDSSAPQPINWFDPWGQGTLVTVSS
VL: QSALTQPASVSGSPGQSITISCTGTSSDVGSYNLVSWYQQHPGKAPKLMIYEVSKRPSGVSNRFSGSKSGNTASLTISGLQAEDEADYYCCSYAGSSTLVFGGGTKLTVL
B5: antibody 263 (antibody, V domains shown)
VH: EVQLVQSGAEVKKPGATVKISCKVSGYTFTDYYMHWVQQAPGKGLEWMGLVDPEDGETIYAEKFQGRVTITADTSTDTAYMELSSLRSDDTAVYYCTTDLAFTIFGGRRGFDPWGQGTLVTVSS
VL: DIQLTQSPSFLSASVGDRVTITCRASQGISSYLAWYQQKPGKAPKLLIYAASTLQSGVPSRFSGSGSGTEFTLTISSLQPEDFATYYCQQLNSYDFGQGTRLEIK
B6: antibody 265 (antibody, V domains shown)
VH: EVQLVQSGAEVKKPGATVKVSCKFSGDTFSHYYIHWVQQAPGKGLEWMGLVDPQDGESEYAQKFQGKVTITADTSIDTSYLEVTSLRFDDTAFYFCATRGMSGAFDRWGQGTLVTVSS
VL: DIVMTQSPDSLAVSLGERATINCKSSQSILSTSNNKNYLAWYQQKPGQPPKLLIYWASTRESGVPDRFSGGGSGTDFTLTISSLQAEDVAVYYCQQYYRTAYTTPIYTFGQGTKLEIK
B7: antibody 317 (antibody, V domains shown)
VH: QVQLVQSGAEVKKPGASVKVSCKVSGYTLTELSMHWVRQAPGKGLEWMGGFDPEDGETIYAQKFQGRVTMTEDTSTDTAYMELSSLRSEDTAVYYCASSPAAAGTSQYYYYYGMDVWGQGTTVTVSS
VL: not shown
B8: antibody 288 (antibody, V domains shown)
VH: EVQLVESGGGLVQPGGSLRLSCAASGFTFSSYDMHWVRQATGKGLEWVSAIGTAGDTYYPGSVKGRFTISRENAKNSLYLQMNSLRAGDTAVYYCARGANRDYDILTGYYSYYYYGMDVWGQGTTVTVSS
VL: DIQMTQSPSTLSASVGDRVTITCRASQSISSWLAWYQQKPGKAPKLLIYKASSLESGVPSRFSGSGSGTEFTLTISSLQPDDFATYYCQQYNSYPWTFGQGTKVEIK
B9: antibody 295 (antibody, V domains shown)
VH: QVQLQESGPGLVKPSQTLSLTCTVSGGSISSSDYYWSWIRQPPGKGLEWIGYIYYSGSTYYNPSLKSRVTISVDTSKNQFSLKLSSVTAADTAVYYCARVVGYCSSTSCYVDYWGQGTLVTVSS
VL: EIVLTQSPATLSLSPGERVTLSCRASQSVSSYLAWYQQKPGQAPRLLIYDASNRATGIPARFSGSGSGTDFTLTISSLEPEDFAVYYCQQRSNWPPGLTFGGGTKVEIK
B10: antibody 276 (antibody, V domains shown)
VH: QVQLQESGPGLVKPSQTLSLTCTVSGDSISSGGYYWSWIRQHPGKGLEWIGYIYYSGSAYYNPSLKSRVTISLDTSKNQFSLKLSSVTAADTAVYYCARDSVAGFSIFDYWGQGTLVTVSS
VL: SSELTQDPAVSVALGQTVRITCQGDSLRSYYASWYQQKPGQAPVRVIYGKNNRPSGIPDRFSGSSSGNTASLTITGAQAEDEADYYCNSWDSSGNHVVFGGGTKLTVL
B11: antibody 260 (antibody, V domains shown)
VH: EVQLVESGGGLVQPGRSLRLSCAASGFTFDYYAMHWVRQAPGKGLEWVSGISWNSGTIGYADSVKGRFTISRDNAKNSLYLQMNSLRAEDTALYYCAKDSRPSGRYYYGMDVWGQGTTVTVSS
VL: not shown
B12: antibody 301 (antibody, V domains shown)
VH: QVQLVQSGAEVKKPGASVKVSCKVSGYTLTELSMHWVRQAPGKGLEWMGGFDPEDGETIYAQKFQGRVTMTEDTSTDTAYMELSSLRSEDTAVYYCATAFCGGDCYPPDALDIWGQGTMVTVSS
VL: DIQMTQSPSSVSASVGDRVTITCRASQGISSWLAWYQQKPGKAPKLLIYAASSLQSGVPSRFSGSGSGTDFTLTISSLQPEDFATYYCQQANSFPLTFGGGTKVEIK
B13: antibody 264 (antibody, V domains shown)
VH: QVHLVESGGGVVQPGRSLRLSCAASGFTLTSYAMHWVRQAPGKGLEWVALISYDGSVKKYAESVKGRITVSGDNSRNTLHLQINTLRADDTAVYYCVRGGVSGPNSFDLWGQGTMVTVSS
VL: DVVMTQSPLSLPVTLGQPASISCRSSQSLEYSDGNTYVNWFQQRPGQSPRRLIYQVSNRASGVPDRFSGSGSGTDFTLQISRVEAEDVGIYYCMQGTHWPVTFGQGTKVEIK
B14: antibody 316 (antibody, V domains shown)
VH: B13 VH with S31A, G44R, E62D, N74T, R76T, I83M, T85S
VL: B13 VL with I21M, Q42H, Q55K, N58Y, A60D
B15: antibody 303 (antibody, V domains shown)
VH: QVQLVESGGGVVQPGRSLRLSCAASGFNLSSYAMHWVRQASGKGLEWVSLISYDGSIKYYADSVKGRFTVSGDNSKNMLFLQMNSLRADDSALYYCVRGGVSGPNAFDIWGQGTTVTVSS
VL: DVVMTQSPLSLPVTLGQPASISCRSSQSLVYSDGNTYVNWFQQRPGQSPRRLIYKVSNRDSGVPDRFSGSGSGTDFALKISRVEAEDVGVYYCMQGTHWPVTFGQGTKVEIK
B16: antibody 266 (antibody, V domains shown)
VH: B15 VH with S31N, A40P, A61T, M78T, A88P, A106S, I109M
VL: B13 VL with E30V, N58I, T77A, Q79K, I90V
B17: antibody 281 (antibody, V domains shown)
VH: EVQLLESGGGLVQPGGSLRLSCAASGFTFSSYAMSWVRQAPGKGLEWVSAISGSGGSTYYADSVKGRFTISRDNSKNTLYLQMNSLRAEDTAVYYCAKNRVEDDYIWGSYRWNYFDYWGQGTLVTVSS
VL: QSALTQPASVSGSPGQSITISCTGTSSDVGSYNLVSWYQQHPGKAPKLMIYEVSKRPSGVSNRFSGSKSGNTASLTISGLQAEDEADYYCCSYAGSSTHVVFGGGTKLTVL
B18: antibody 294 (antibody, V domains shown)
VH: EVQLVESGGGLVQPGGSLRLSCAASGFTVSSNYMNWVRQAPGKGLEWVSVIYSGGSTYYADSVKGRFTISRDNSKNTLYLQMNSLRAEDTAVYYCARDLGPSGMDVWGQGTTVTVSS
VL: DIQMTQSPSSVSASVGDRVTITCRASQGISSWLAWYQQKPGKAPKLLIYAASSLQSGVPSRFSGSGSGTDFTLTISSLQPEDFATYYCQQANSFPLFGGGTKVEIK
B19: antibody 300 (antibody, V domains shown)
VH: QVQLVESGGGVVQPGRSLTLSCAASGFTFSSYAMHWVRQAPGKGLEWVALISYDGNNKYYADSVKGRFTFSRDNSKNTLYLQMNSLRAEDTAVYYCARTNSGSYRTAFDYWGQGTLVTVSS
VL: DIQMTQSPSTLSASVGDRVTITCRASQSISIWLAWYQQKPGKAPKLLIYKASSLESGVPSRFSGSGSGTEFTLTISSLQPDDFATYYCQQYNSLWTFGQGTKVEIK
B20: anti-SARS-CoV-2 antibody 1009 (antibody, V domains shown)
VH: QLQLQESGPGLVKPSQTLSLTCTVSGGSISSGSYYWSWIRQPAGKGLEWIGSIYTSGSTYYNPSLKSRVTISVDTSKNQFSLKLSSVTAADTAVYYCARKNWLQGSFDYWGQGTLVIVSS
VL: NFMLTQPHSVSESPGKTVTISCTRSSGSIANNYVQWYQQRPGSAPTTVIYEDNQRPSGVPDRFSGSIDSSSNSASLTISGLKTEDEADYYCQSYDTSNHGVFGGGTKLTVL
B21: anti-SARS-CoV-2 antibody 933 (antibody, V domains shown)
VH: QVQLVQSGAEVKKPGASVKVSCKASGYTFTTYDINWVRQATGQGLEWMGWMNPNSGYTDSAQKFQGRVTMTRNTSISTAYMELSSLRSEDTAVYYCASGRGVKTYYFDYWGQGTLVTVSS
VL: SYELTQPPSVSVSPGQTASITCSGDKLGDKSACWYQQKPGQSPVLVICQDTKRPSGIPERFSGSNSGNTATLTISGTQAMDEADYYCQAWDSRTVVFGGGTKLTVL
B22: anti-SARS-CoV-2 antibody 923 (antibody, V domains shown)
VH: EVQLVESGGGVVRPGGSLRLSCAASGFIFDDYDMTWVRQAPGKGLEWVSGISWNGGNTGYADSVKGRFTISRDNAKNSLYLQMNSLRAEDTALYHCAVIMSPIPRYSGYDWAGGAFDIWGQGTMVTVSS
VL: B10 VL with A42V, V44I, R45L, G49D, W90R, H96A

The first experiment addresses SARS-CoV-2 full length spike protein, wild type, expressed on the surface of CHO cells (SARS-CoV-2, UniProt P0DTC2 14-1273).
Experiment: not given
Turning to B1, the “median fluorescence fold over isotype control” value (“median fluorescence fold” for short) turned out to be 13.3 fold over isotype.

Turning to B2, the “median fluorescence fold” value was found to be 1.1 fold over isotype. Turning to B3, the “median fluorescence fold” value was 19.3 fold over isotype.

In the next experiment the target is SARS-CoV-2 full length spike protein (wild type) (SARS-CoV-2, UniProt P0DTC2 14-1273).
Experiment: not given
On to B4, for which the “median fluorescence intensity, fold over isotype control” value (shortened to “median fluorescence intensity, fold”) is 16.9 fold over isotype. With B5, the “median fluorescence intensity, fold” value is 22.5 fold over isotype. On the same count and under the same terms, as for B6, the figure is 21.4 fold over isotype.

As for B7, the “median fluorescence intensity, fold” value came to 11.2 fold over isotype. For the molecule B8, the “median fluorescence intensity, fold” value was determined as 24.3 fold over isotype. Still for that read-out and setting: as for B9, the figure is 9.67 fold over isotype; as for B10, 9.24 fold over isotype; as for B11, 10.3 fold over isotype. With B12, the “median fluorescence intensity, fold” value is 29.7 fold over isotype. As to B13, the “median fluorescence intensity, fold” value was determined as 10.3 fold over isotype. Still for that read-out and setting: in the case of B14 it was 10.7 fold over isotype.

Turning to B15, the “median fluorescence intensity, fold” value was 9.59 fold over isotype. As to B16, the “median fluorescence intensity, fold” value came to 10.3 fold over isotype.

As to B17, the “median fluorescence intensity, fold” value turned out to be 24.3 fold over isotype. Same read-out and setting: as for B18, the figure is 22.2 fold over isotype; as for B19, 9.71 fold over isotype.

A further experiment addresses SARS-CoV-2 spike protein (wild type), spike protein trimer (SARS-CoV-2, UniProt P0DTC2 14-1208).
Experiment: not given
Regarding B20, binding was put at a Kd of 0.168 nM. Still for that read-out and setting: in the case of B21 it was 0.276 nM; in that of B22, 0.035 nM.

Another experiment has as its target SARS-CoV-2 full-length spike protein on pseudotyped lentivirus (SARS-CoV-2, UniProt P0DTC2 14-1273). In words: cell-based or functional assay.
As for B20, the “Pseudo-neutralization IC50” value was 0.17 µg/mL. On the same count and under the same terms, as for B21, the figure is 0.022 µg/mL. On to B22, for which the “Pseudo-neutralization IC50” value was found to be 0.093 µg/mL.
